Earlier results as cited in patent US20080070838A1, “Growth Factor Treatment for Asthma” (University of Southampton, priority 2004, published 2008).

Test system: airway fibrosis
Conditions: mouse, in vivo

For “TGFα: structural homologue of EGF and a ligand for the EGF receptor”, the airway fibrosis is listed as “marked airway fibrosis”.
